Patent publication JP2010011840A (dated 2010)

B1: i41SL1-2抗体の重鎖(i41SL1-2-H) (other, not shown: a dimerising Fc or GST)
heavy: QVQLQHSGAELVRPGSSVKVSCKALGYTSTDYEIHWVKQTPVRGLEWIGAIHPGSDVIVYNQKFKGTATLTADKSSSTAYMELRSLTSEDSAVYYCTREGGSVDYVWGQGTLVTVSA
modifications: reduced with 0.2 M β-mercaptoethanol and alkylated with 0.3 M iodoacetamide (positions not stated)
B2: i41SL1-2抗体の軽鎖(i41SL1-2-L) (other, not shown: a dimerising Fc or GST)
light: DIVMTQTQLTLTINIGQPASISCKSSQSLLDSDGKTYLNWLFQRPGQSPKRLIYLVSKLDSGVPDRFTGSGSGTDFTLKISRVEAEDLGVYYCWQGTHFPLTFGAGTKLELRRA
modifications: reduced with 0.2 M β-mercaptoethanol and alkylated with 0.3 M iodoacetamide (positions not stated)

Biological target: T1, CDR1抗原ペプチド(RSSKSLLYSNGNTYLY)
T1 peptide: RSSKSLLYSNGNTYLY
Experiment: cell-based or functional assay

Row | Binder | 回転数(kcat) | 触媒効率(kcat/Km)
1 | B1 | ~0.005 ratio to trypsin | ~0.1 ratio to trypsin
2 | B2 | ~0.005 ratio to trypsin | –
